Experimental data published in a protein production outcome set (Wang et al. 2014).

Test: label from the status in PepcDB records

Sequence	protein production
MSEHHHDHSHDHGHAGHQYHAVGSIQIAFFMNFGFTILEAIGGVMTNSTAILANAVHDFGDSIAVGQAWYFEKLSGRTGDKRYSYGYQRFSIFGALVSALMMLASSFLVLVEAVPRLLHPEHPNAKGMVAFALVGVAVNALAMLRLKGQAGMNARVIALHLLEDVLGWLSVLLVSVVLLFTSLPILDPLLAIVITLYILTGVVKNLRAMVPVFLQAVPSELSLDKVVADIQQTEHVTGVHHAHLWSLDGQRTVFTAHLEIGCDVNPAEYASIKEEIRKLVARHGIYHSTVELEYPGEVCRNESHKDG	failed
MTAFAAASPRAAVRTGFDGLAISVATRAMMKNLDQNFDAILITGPTASGKSALALRLARERNGVVINADSMQVYDTLRVLTARPSDHEMEGVPHRLYGHVPAGSAYSTGEWLRDISGLLSDLRGEGRFPVIVGGTGLYFKALTGGLSDMPAIPDDLREGLRARLIEEGAAKLHAELVSRDPSMAQMLQPGDGQRIVRALEVLEATGKSIRDFQRASGPMIIDPERAQKFIVLPERPVLHDRINRRFEAMMDSGAVEEVQALLALNLAPDATAMKAIGVAQIADMLTGRMGAAEVIEKSAAATRQYAKRQMTWFRNQMGDDWTRIQPLEHHHHHH	failed
MNDDVEFRYADFLFKNNNYAEAIEVFNKLEAKKYNSPYIYNRRAVCYYELAKYDLAQKDIETYFSKVNATKAKSADFEYYGKILMKKGQDSLAIQQYQAAVDRDTTRLDMYGQIGSYFYNKGNFPLAIQYMSKQIRPTTTDPKVFYELGQAYYYNKEYVKADSSFVKVLELKPNIYIGYLWRARANAAQDPDTKQGLAKPYYEKLIEVCAPGGAKYKDELIEANEYIAYYYTINRDKVKADAAWKNILALDPTNKKAIDGLKMKLEHHHHHH	not failed
MITFEKVTVENENVVKEMFRSHSLSEKQVQYCVKVDDTYIGVIDYRVQGETAILSQLIIHFDYQSYGYGTNTYFTFEMMMKERNVKEIKVLQTELTEPVKSFIESFGFNVEDG	failed
MSEVHTTIIDLDAGAVFSGTPSGRIIKGFDKPCAHTPNIDPDYVFHECSRDIVVWLMDSSDPLYVFGPTGSGKTSAIKQLAARLNYPVFDVTGHGRLEFPDLVGHLSVRDGSMEFQYGPLALAMRHGGILLLNEIDLLEPATATGFNGILDGEPLCIPENGGEIITPHPMFRFAATANTNGGSDDTGLYQGTLRQNLAFLDRFWLCEMPYPAPEAEKALLERRAPMLPDDIRTRMVDYANEVRRLFMGESGTTYGHSIEVTFSTRTLLRWADLTVRFQPLARQGIQPLTYALDRALGFKASKDTRTTLHELAQRLFPQHAATGE	failed
MTKVNPYAAGARGLCPHCGEGYLFDGFLKVAPRCEACGFELGKHETGDGAATFVILIAGAICAFGALFSMFAWNWPVWVSLVVWLPAVVAISLGLMRPAKGLMVAAQIAQKASEAGRDHV	failed
MKRTLLAISIFAITCNASASSSPDAVSSMSDRYSTLANLEMNGGFPTETSQKILQNESYFQRASMLYQWALPIVNMKAMQEGHAELMNGTAYNKIAIYQDRLKPNSLITTPNSDVIYAMGWLDMKETGPLIIEHPAGLQSLMDDMYHHPLRGPLDKNQPGGQYLGDIGNAGPDKGKAAKFLILPPNKKREDYAQLADKYFIYESNTSEVFLFLRSFFKDMNNLEPAVNRVKEIKVYPLNGSAESMEFFNVSDVPSKSIWDNDYRFYETLNRAVQNMELATFDPYMNGVMAAIGISKGVEFTPTEKQKEMLTKAAQTGWKISKEIALNFDEKSSKTTGDTWFWKEAPSWVAHALTDKGNQYHALSDPYYHNIKTGYTNVDAITHMYTNHYSMSSGMINAKIGAGAKYAGAYKDKDLNPLIGSCNYSLHIPADVPASLFWSVTAYDAATAAGVNVENHQWPSLGDRDNPIKNSDDSVTLFFGPTAPENAQLAKNNWLQFDNDSWFSLIRFYGPQQSLFDGSWVPGEFEKINCVK	failed
MKRLIGLVIVALVLLAACGSNNDKKVTIGVASNDTKAWEKVKELAKKDDIDVEIKHFSDYNLPNKALNDGDIDMNAFQHFAFLDQYKKAHKGTKISALSTTVLAPLGIYSDKIKDVKKVKDGAKVVIPNDVSNQARALKLLEAAGLIKLKKDFGLAGTVKDITSNPKHLKITAVDAQQTARALSDVDIAVINNGVATKAGKDPKNDPIFLEKSNSDAVKPYINIVAVNDKDLDNKTYAKIVELYHSKEAQKALQEDVKDGEKPVNLSKDEIKAIETSLAK	not failed
MKKKYFGTDGIRGKVGDFPITPDFFLRLGYAVGKVLLASDRQLAADKRPTVLIGKDTRISGYMLESALEAGFSAAGVDVLLSGPLPTPAVAYLVRALRIQAGAVISASHNPFDDNGIKFFSSAGSKLPDSMELQIEAELDQPMKTTPSIKLGRVQRLRDAAGRYIEFCKSTFPNQLDLRGLRIVVDCANGADYHIAGHVMHELGADVITTHASPDGFNINYECGATHIETLQGSILQHKADIGIAVDGDGDRVLMVSREGVLYDGDSLAYIIAKHRQQLGELQGGVAGTLMTNLAVEQAFERLGIPFARANVGDRYVSELLQQNDWYLGAENSGHIICRDKHTTGDGIISALQVLYALRDTGLTLADFMRDVPFFPQRLINVKVSGNFDFRSNPAVAACKNEAEQALGNDGRILLRASGTEPLIRVMVEGKVLQQTDYWAEKIAETIRQQAASSMTGS	failed
MKTKGWGALAVLPLALALAGNVAAEEVKGKVKTVSVKAGQISLTVESKGVMLFRVTDGTTFANAASIREIHADDLLQVDYRVDGFDNVAKAVAKVVAKLPEGVTAMDTRELEALVAKGTEEGGYLLIDSRPAGKYNEAHIPTAVSIPFAELEKNPALLTASKDRLLVFYCGGVTUVLSPKSAGLAKKSGYEKVRVYLDGEPEWKKAELPLESSLAFVEKGNIVLIDLRSPEKVAAGHIPGAVGIPAADLAAAQAKFPAYRGAHLVFYSDSAEDLSQALELARDWNYKNATIFPGGIGAWQKAGKHLKTGAAAATVTYVKKLAPGEVGTEDFQAALKDGRTVVIDARAPGEFEKGHFKGAVNIPAEEAAKRLAEIPADRPVLVHCSTGTRAEMVYDLVKDKGYNLKYLKAGVEFAADGSYTISE	failed
MSLFTCEDPAVWKAVHNKYWTVVEAKSAGKRKTSGKLLQLDKWFQEDLPAAITARPERFLTHAELVKIMEWKLTKGKFRPRLQQLIGSNNEEAVQSSSSKAFSLLPDVQAAIKELCKLKGVGSATASAVLVAGAPDKVAFMADEAVESIAELRPVEYTDKHYALYLQKMLWKTSELNKVDAQQDWTPHRVEQCLWTWTVANQIQPSLLQGVSLKDATNQKPEKRKTADEKPSKRKKTE	failed
MSLLEQLDKNIAASGGLIVSCQPVPGSPLDKPEIVAAMALAAEQAGAVAVRIEGIDNLRMTRSLVSVPIIGIIKRDLDESPVRITPFLDDVDALAQAGAAIIAVDGTARQRPVAVEALLARIHHHHLLAMADCSSVDDGLACQRLGADIIGTTMSGYTTPDTPEEPDLPLVKALHDAGCRVIAEGRYNSPALAAEAIRYGAWAVTVGSAITRLEHICGWYNDALKKAAS	not failed
METKCELNNTKKVANAFGLNEEDTNLLINAVDLDIKNNMQEISSELQQSEQSKQKQLGTTLQNLAKQNRIIK	failed
MTVLRKQAREAGVYMKVVRNTLARRAVEGTEYECLTDTFTGPSLLAFSNEHPGAAARLFKDFAKENKDFEIKAAAFEGAVTDADVLATLPTYDEAIARLMMCMKEASAGKLVRTIAAVRDQKEEAAA	failed
MAHLLEKTRKITSILKRSEEQLQDELPYNAITRQLADIIHCNACIINSKGRLLGYFMRYKTNTDRVEQFFQTKIFPDDYVQGANMIYETEANLPVEHDMSIFPIESRDDFPDGLTTIAPIHVSGIRLGSLIIWRNDKKFEDEDLVLVEIASTVVGIQLLNFQREEDEKNIRRRTAVTMAVNTLSYSELRAVSAILGELNGNEGKLTASVIADRIGITRSVIVNALRKLESAGIIESRSLGMKGTYLKVLISDIFEEVKKRDY	failed
MFFLLLTPFNAAASETNSDDATADAKNLSGTNAADTVVSQIIGASVYIEGEIYNNEYATISVTTKNEGDKSSEGHIIVAFPNNEEILSKEGSGDRVDIYPSGSSIETKDGTKIDSSEYLFVDLVKYDWETGKNETLNLKVKPNKGSEEIVYLVRAELMNDATGDYERYPGILSESSDVDQQGWYVYNNSFGVSGDPDLMIEDISWEPENPHENENVTFKVTLKNVGLASSGNCSVKCYLDGNEISFSTVSGLEADSTTSFTFNWVPTSSGSMDLKVVVDSEGQFVEFTEENNEKTGIFKVISYTNSSSPSSPSPGSGSSSSSSSSGGGAGGSPEPASNVEIKELAQQFVSNGNHAKFIFAKNVTSIAYIEFDPKKTVGKTTTIVETLKGKSTLVTELPTGKVYKNTNIWVGNEGTASSENIENAVVGFKVEKTWINSNGVDSSSVKLWAFEDEKWVELPTSQTDEDEDYVYYEADTPGFASFSIMALYPEENTEGTSLPLGSYVEDKDTKAVSETSEEESEVVDSEAGENNSGSMKKGLLAIGMLAAVILAGYVISRKQD	failed
MAAYQVLIVGAGFSGAETAFWLAQKGVRVGLLTQSLDAVMMPFLPPKPPFPPGSLLERAYDPKDERVWAFHARAKYLLEGLRPLHLFQATATGLLLEGNRVVGVRTWEGPPARGEKVVLAVGSFLGARLFLGGVVEEAGRLSEASYPDLLEDLSRLGFRFVEREGEVPETPSTPGYRVRYLAFHPEEWEEKTFRLKRLEGLYAVGLCVREGDYARMSEEGKRLAEHLLHELG	not failed
MARLIGFKMAEVHRGRIVMQLDPDQSLENTAGLLHGAIAAALLDTAMGCAISTQQPAGQGSVTMDLKLSYLRPLSVRSGTIVAEGRVVKLGRQSSYTEGFVYDGAGKLAVHATATFAMLGAGPLEHHHHHH	failed
LDRAYLRVENQRYRDKLEAANRELQASLNLLQEDQNAGRQVQMNMLPVTPWSIEGLEFSHRIIPSLYLSGDFVDYFRVDERRVAFYLADVSGHGASSAFVTVLLKFMTTRLLYESRRNGTLPEFKPSEVLAHINRGLINTKLGKHVTMLGGVIDLEKNSLTYSIGGHLPLPVLFVEGQAGYLEGRGLPVGLFDDATYDDRVMELPPSFSLSLFSDGILDVLPGATLKEKEASLPEQVAAAGGTLDGLRQVFGLANLAEMPDDIALLVLSRNLA	failed
MRVSCVYATASRWGGPPVASEVRGDAAISTTPDAAPGLAARRRRILFVAEAVTLAHVVRPFALAQSLDPSRYEVHFACDPRYNQLLGPLPFRHHAIHTIPSERFFGNLTQGRFYAMRTLRKYVEADLRVLDEIAPDLVVGDLRISLSVSARLAGIPYIAIANAYWSPYAQRRFPLPDVIWTRLFGVRLVKLLYRLERPLLFALQCMPLNWVRRRHGLSSLGWNLCRIFTDGDHTLYADVPELMPTYDLPANHEYLGPVLWSPAGKPPTWWDSLPTDRPIVYATLGTSGGRNLLQLVLNALAELPVTVIAATAGRSDLKTVPANAFVADYLPGEAAAARSAVVVCNGGSLTTQQALVAGVPVIGVAGNLDQHLNMEAVERAGAGVLLRTERLKSQRVAGAVMQVISRSEYRQAAARLADAFGRDRVGFPQHVENALRLMPENRPRTWLAS	failed
MPIRRRTSGNDRKNIGPRMEVARVREPFSFGVPERRRFAMQFGYDMRPSFWQEVRSNSHLVIAAVGTAALLGVAAVALWLALPTSERQAAASQEQSIPSIPVKTMKIVPAGTTVAAATVPQPARKSDQVSPTVAVAKANIQALAANDPRWTEAQPKTASAAPDQAAAPSQAANQAEPAPNKPAVTAAFAPSATDTDAASELAKVAAPAPAAGSNPDGAKTAAIPEVQPQAPEQQPTASDDGSKARAKPPKVAAAGNGRILRPVTMRSGPKKNAAAIGTVPARTSVQVMICKQWCQIVYNGKTGWVYKSYIKTGG	failed
